# Values quoted from earlier work as cited in publication PMC10293842 (Proceedings of the National Academy of Sciences of the …, 2023).
# Tested on: Omicron BA.1 and BA.2
molecule,measurement,value
"Adintrevimab (antibody, chains of the INN, looked up, V domains shown) VH: EVQLVESGGGLVKPGGSLRLSCAASGFTFSSYYMNWVRQAPGKGLEWVSSISEDGYSTYYPDSLKGRFTISRDSAKNSLYLQMNSLRADDTAVYYCARDFSGHTAWAGTGFEYWGQGTLVTVSS VL: QSVLTQPPSVSGAPGQRITISCTGSSSNIGAGYDVHWYQQLPGTAPKLLIYGSSSRNSGVPDRFSGSKSGTSASLAITGLQAEDEADYYCQSYDSSLSVLYTFGTGTKVTVL",decrease in activity,20 fold
